# Assay results taken from paper PMC7730851, “Expression of Somatostatin Receptor Subtypes (SSTR-1–SSTR-5) in Pediatric Hematological and Oncological Disorders” (Molecules, 2020).
# B1: epidermal growth factor (EGF): unrelated peptide used as specificity control (protein, UniProt P01133 23-1207, looked up)
# Pro-epidermal growth factor: PQHWSCPEGTLAGNGNSTCVGPAPFLIFSHGNSIFRIDTEGTNYEQLVVDAGVSVIMDFHYNEKRIYWVDLERQLLQRVFLNGSRQERVCNIEKNVSGMAINWINEEVIWSNQQEGIITVTDMKGNNSHILLSALKYPANVAVDPVERFIFWSSEVAGSLYRADLDGVGVKALLETSEKITAVSLDVLDKRLFWIQYNREGSNSLICSCDYDGGSVHISKHPTQHNLFAMSLFGDRIFYSTWKMKTIWIANKHTGKDMVRINLHSSFVPLGELKVVHPLAQPKAEDDTWEPEQKLCKLRKGNCSSTVCGQDLQSHLCMCAEGYALSRDRKYCEDVNECAFWNHGCTLGCKNTPGSYYCTCPVGFVLLPDGKRCHQLVSCPRNVSECSHDCVLTSEGPLCFCPEGSVLERDGKTCSGCSSPDNGGCSQLCVPLSPVSWECDCFPGYDLQLDEKSCAASGPQPFLLFANSQDIRHMHFDGTDYGTLLSQQMGMVYALDHDPVENKIYFAHTALKWIERANMDGSQRERLIEEGVDVPEGLAVDWIGRRFYWTDRGKSLIGRSDLNGKRSKIITKENISQPRGIAVHPMAKRLFWTDTGINPRIESSSLQGLGRLVIASSDLIWPSGITIDFLTDKLYWCDAKQSVIEMANLDGSKRRRLTQNDVGHPFAVAVFEDYVWFSDWAMPSVMRVNKRTGKDRVRLQGSMLKPSSLVVVHPLAKPGADPCLYQNGGCEHICKKRLGTAWCSCREGFMKASDGKTCLALDGHQLLAGGEVDLKNQVTPLDILSKTRVSEDNITESQHMLVAEIMVSDQDDCAPVGCSMYARCISEGEDATCQCLKGFAGDGKLCSDIDECEMGVPVCPPASSKCINTEGGYVCRCSEGYQGDGIHCLDIDECQLGEHSCGENASCTNTEGGYTCMCAGRLSEPGLICPDSTPPPHLREDDHHYSVRNSDSECPLSHDGYCLHDGVCMYIEALDKYACNCVVGYIGERCQYRDLKWWELRHAGHGQQQKVIVVAVCVVVLVMLLLLSLWGAHYYRTQKLLSKNPKNPYEESSRDVRSRRPADTEDGMSSCPQPWFVVIKEHQDLKNGGQPVAGEDGQAADGSMQPTSWRQEPQLCGMGTEQGCWIPVSSDKGSCPQVMERSFHMPSYGTQTLEGGVEKPHSLLSANPLWQQRALDPPHQMELTQ
# modifications: Pro-epidermal growth factor
# notes: unrelated peptide used as specificity control
# Tested on: somatostatin receptors (SSTR)
# Test: Displacement of [125I]RC-160 binding from membranes of human pediatric tumors by unlabeled peptides
# Method: Receptor binding affinities and concentrations of SSTRs in tumor membranes were also studied. […] Biochemical specifications and parameters crucial to characterize specific binding sites were also defined. […] Various peptides structurally related or unrelated to SST were used in these studies.
# Displacement of [^125I] RC-160 as a radioligand by the unlabeled SST analogs as competitor was determined.
# The radioiodinated derivatives of the RC-160 SST analogue were prepared by the chloramine-T method and purified by reverse phase high-performance liquid chromatography (RP-HPLC) as described previously. Somatostatin receptor-binding assays were performed as described previously with some minor modifications, using in vitro ligand competition assays based on the binding of [^125I] RC-160 as a radioligand to membrane fractions of the pediatric samples. This radioiodinated ligand has been well characterized and reported previously and has high affinity for SSTR-2 and SSTR-5 [4]. […] After incubation for 2 h, the binding reactions were stopped, and the bound ligand was separated and counted in a gamma counter. […] The final binding affinities were expressed as IC50 values. Protein concentration was determined by the method of Bradford using a Bio-Rad protein assay kit (Bio-Rad Laboratories, Inc.).
molecule,measurement,setting,value
B1,displacement of [125I]RC-160 binding,"membrane fractions of human rhabdomyosarcoma specimen, Figure 3",did not displace
same,inhibition/displacement of the binding of radioiodinated RC-160,"pediatric tumor membranes, competitor 10^-12-10^-6 M, concentrations as high as 1 µM",none
